Experimental findings from paper PMC10966353 are described below.

This test addresses A/Puerto Rico/8/1934 hemagglutinin with an N-terminal sfGFP, GCN4-pII trimerization motif and Strep-tag II (influenza A virus A/Puerto Rico/8/1934). As to the kind of experiment: negative stain electron microscopy.

“A/Puerto Rico/8/1934 hemagglutinin with an N-terminal sfGFP, GCN4-pII trimerization motif and Strep-tag II” yielded a stoichiometry N of 3.

By stoichiometry N is commonly meant the number of molecules, sites or subunits per partner or assembly.
